# Data reported in patent US20060270591A1 (published 2006).
# T1: VP16 fused near full-length AR (nAR, aa 36-918) (human, UniProt P10275 36-919)
# T1 sequence: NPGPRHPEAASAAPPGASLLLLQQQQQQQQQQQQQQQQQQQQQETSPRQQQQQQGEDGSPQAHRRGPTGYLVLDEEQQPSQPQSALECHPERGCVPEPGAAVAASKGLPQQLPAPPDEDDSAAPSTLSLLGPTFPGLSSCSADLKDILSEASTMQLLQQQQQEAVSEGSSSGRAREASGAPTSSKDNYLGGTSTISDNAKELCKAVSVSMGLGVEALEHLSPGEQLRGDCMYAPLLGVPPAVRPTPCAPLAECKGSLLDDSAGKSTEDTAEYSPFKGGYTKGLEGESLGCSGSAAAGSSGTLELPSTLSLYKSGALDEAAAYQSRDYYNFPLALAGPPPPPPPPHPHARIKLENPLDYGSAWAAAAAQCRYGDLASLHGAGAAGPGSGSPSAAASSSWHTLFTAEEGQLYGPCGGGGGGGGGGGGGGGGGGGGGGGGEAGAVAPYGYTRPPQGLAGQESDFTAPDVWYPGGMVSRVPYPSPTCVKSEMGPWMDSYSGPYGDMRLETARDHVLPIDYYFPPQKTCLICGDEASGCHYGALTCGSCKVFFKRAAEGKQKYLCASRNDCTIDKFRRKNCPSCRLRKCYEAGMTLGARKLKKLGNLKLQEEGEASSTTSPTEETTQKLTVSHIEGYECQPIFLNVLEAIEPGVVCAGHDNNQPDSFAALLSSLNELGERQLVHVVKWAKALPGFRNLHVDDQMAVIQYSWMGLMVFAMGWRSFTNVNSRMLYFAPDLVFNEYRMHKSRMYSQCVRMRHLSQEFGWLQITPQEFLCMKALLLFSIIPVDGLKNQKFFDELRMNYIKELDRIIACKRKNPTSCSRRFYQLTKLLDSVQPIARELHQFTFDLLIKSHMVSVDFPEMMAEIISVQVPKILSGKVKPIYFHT
# B1: PR-LBD (mammalian two-hybrid construct) (receptor, UniProt P06401 679-933, looked up)
# chain: QDIQLIPPLINLLMSIEPDVIYAGHDNTKPDTSSSLLTSLNQLGERQLLSVVKWSKSLPGFRNLHIDDQITLIQYSWMSLMVFGLGWRSYKHVSGQMLYFAPDLILNEQRMKESSFYSLCLTMWQIPQEFVKLQVSQEEFLCMKVLLLLNTIPLEGLRSQTQFEEMRSSYIRELIKAIGLRQKGVVSSSQRFYQLTKLLDNLHDLVKQLHLYCLNTFIQSRALSVEFPEMMSEVIAAQLPKILAGMVKPLLFHKK
# notes: domain: LBD; Construct not described
# Biological target: T1, VP16 fused near full-length AR (nAR, aa …)
# Test: mammalian two-hybrid, DU145, CAT
binder,measurement,value
B1,binding result,no binding
